Laboratory results from US20210206881A1 (Amgen, published 2021).
Numbering of substitutions follows the chain as printed.

Tests used:
[1] = biological target: T1, human B-cell activating factor (BAFF) (human, UniProt Q9Y275 134-285); test: cell-based or functional assay
[2] = biological target: BAFF used in the cynomolgus monkey B cell proliferation assay; test: cell-based or functional assay
[3] = biological target: T2, human B7RP1-Fc fusion protein (human, UniProt O75144 19-256, limits assumed); test: cell-based or functional assay
T2 sequence (looked up): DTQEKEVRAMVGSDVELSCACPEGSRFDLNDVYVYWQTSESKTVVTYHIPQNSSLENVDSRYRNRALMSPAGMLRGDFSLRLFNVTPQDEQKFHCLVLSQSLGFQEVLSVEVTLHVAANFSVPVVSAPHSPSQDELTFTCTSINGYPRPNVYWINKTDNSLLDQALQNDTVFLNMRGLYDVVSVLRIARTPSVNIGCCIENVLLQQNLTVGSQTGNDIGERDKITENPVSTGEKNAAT

[4] = biological target: B7RP1 used in the cynomolgus monkey T cell proliferation assay; test: cell-based or functional assay
[5] = biological target: T1, human B-cell activating factor (BAFF); test: KinExA (Kinetic Exclusion Assay)
Method: (§1) The binding affinities of the heterodimeric bispecific antibodies P74293 and P74294 to BAFF and B7RP1 were measured by Kinetic Exclusion Assay (KinExA®; Sapidyne Instruments, Boise, Id.). […] In addition, both of these bispecifics have similar binding affinities to cynomolgus monkey BAFF compared to human BAFF and to cynomolgus monkey B7RP1 compared to human B7RP1.

cynomolgus monkey BAFF = cynomolgus monkey BAFF (cynomolgus monkey, UniProt A0A2K5V2X4 134-285); test: KinExA (Kinetic Exclusion Assay)
Method: as §1

[6] = biological target: T3, human B7-related protein 1 (B7RP1) (human, UniProt O75144 19-256, limits assumed); test: KinExA (Kinetic Exclusion Assay)
T3 construct: also called human B7RP1; ICOSLG
T3 sequence (looked up): T2 sequence (looked up)
Method: as §1

cynomolgus monkey B7RP1 = biological target: T4, cynomolgus monkey B7RP1 (cynomolgus monkey, UniProt A0A2K5TK64 19-256); test: KinExA (Kinetic Exclusion Assay)
T4 sequence: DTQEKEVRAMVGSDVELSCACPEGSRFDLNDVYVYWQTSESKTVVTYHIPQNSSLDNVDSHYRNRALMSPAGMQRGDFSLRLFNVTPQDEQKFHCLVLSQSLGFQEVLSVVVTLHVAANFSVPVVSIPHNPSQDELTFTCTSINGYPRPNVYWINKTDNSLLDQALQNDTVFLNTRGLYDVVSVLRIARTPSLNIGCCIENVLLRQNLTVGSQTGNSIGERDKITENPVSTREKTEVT
Method: as §1

T1 sequence (Q9Y275 134-285 limits assumed): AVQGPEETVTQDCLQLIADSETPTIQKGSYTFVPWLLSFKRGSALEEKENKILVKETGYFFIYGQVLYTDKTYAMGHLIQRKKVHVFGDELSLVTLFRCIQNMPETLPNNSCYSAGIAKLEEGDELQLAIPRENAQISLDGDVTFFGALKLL

B1: P74293 BAFF/B7RP1 bispecific molecule (bispecific antibody, human IgG2, kappa)
heavy: EVQLVESGGGLVQPGGSLRLSCAASGFTFSSYWMSWVRQAPGKGLEWVAYIKQDGNEKYYVDSVKGRFTISRDNAKNSLYLQMNSLRAEDTAVYYCAREGILWFGDLPTFWGQGTLVTVSSASTKGPSVFPLAPCSRSTSESTAALGCLVKDYFPEPVTVSWNSGALTSGVHTFPAVLQSSGLYSLSSVVTVPSSNFGTQTYTCNVDHKPSNTKVDKTVERKCCVECPPCPAPPVAGPSVFLFPPKPKDTLMISRTPEVTCVVVDVSHEDPEVQFNWYVDGVEVHNAKTKPREEQFNSTFRVVSVLTVVHQDWLNGKEYKCKVSNKGLPAPIEKTISKTKGQPREPQVYTLPPSREEMTKNQVSLTCLVKGFYPSDIAVEWESNGQPENNYKTTPPMLDSDGSFFLYSKLTVDKSRWQQGNVFSCSVMHEALHNHYTQKSLSLSPGKGGGGGLPGCKWDLLIKQWVCDPLGSGSATGGSGSVASSGSGSATHLLPGCKWDLLIKQWVCDPL
light: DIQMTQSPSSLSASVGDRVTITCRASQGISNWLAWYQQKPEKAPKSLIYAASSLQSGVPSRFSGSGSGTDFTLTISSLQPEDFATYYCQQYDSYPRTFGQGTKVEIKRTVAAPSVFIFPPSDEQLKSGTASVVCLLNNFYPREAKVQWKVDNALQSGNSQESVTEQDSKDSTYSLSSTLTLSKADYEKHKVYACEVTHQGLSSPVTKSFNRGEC
notes: also called anti-BAFF/B7RP1 bispecific P74293
IC50 (nM) for inhibition of BAFF-mediated human B cell proliferation [1]: 0.86 nM | IC50 (nM) for inhibition of BAFF-mediated cynomolgus monkey B cell proliferation [2]: 1.6 nM | IC50 (nM) for inhibition of B7RP1-mediated human T cell proliferation [3]: 1.36 nM | IC50 (nM) for inhibition of B7RP1-mediated cynomolgus monkey T cell proliferation [4]: 0.29 nM | Kd [5]: 0.029 nM | Kd (cynomolgus monkey BAFF): 0.0223 nM | Kd [6]: 0.038 nM | Kd (cynomolgus monkey B7RP1): 0.0494 nM

B2: P74294 BAFF/B7RP1 bispecific molecule (bispecific antibody, human IgG2, kappa)
heavy: B1 heavy with V482S
light: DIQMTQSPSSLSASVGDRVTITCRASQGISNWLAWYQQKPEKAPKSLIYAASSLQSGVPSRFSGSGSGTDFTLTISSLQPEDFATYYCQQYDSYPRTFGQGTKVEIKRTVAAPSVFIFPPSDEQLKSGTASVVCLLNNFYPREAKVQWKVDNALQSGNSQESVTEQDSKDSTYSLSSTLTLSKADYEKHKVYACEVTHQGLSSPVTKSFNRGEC
notes: variant of P71619 with a modified linker
IC50 (nM) for inhibition of BAFF-mediated human B cell proliferation [1]: 0.96 nM | IC50 (nM) for inhibition of BAFF-mediated cynomolgus monkey B cell proliferation [2]: 1.8 nM | IC50 (nM) for inhibition of B7RP1-mediated human T cell proliferation [3]: 0.98 nM | Kd [5]: 0.037 nM | Kd (cynomolgus monkey BAFF): 0.0174 nM | Kd [6]: 0.041 nM | Kd (cynomolgus monkey B7RP1): 0.0452 nM
